In patent publication US20190250145A1:
Each block holds one substance with its values, some of them ahead of it.

Experiments:
[1] = target: I-IIC-CFluc (carboxyl terminal portion of luciferase attached to I-IIC domain of CaV1.2) [luciferase: P08659]; assay: split firefly luciferase complementation in HEK cells
[2] = target: endogenous β-subunit of mouse heart (CaVβ) (mouse) (UniProt Q8CC27); assay: cell-based or functional assay
[3] = target: GKC-CFluc (carboxyl terminal portion of luciferase attached to GKC) [luciferase: P08659]; assay: split firefly luciferase complementation in HEK cells
[4] = target: endogenous β subunits of guinea pig ventricular cardiomyocytes (guinea pig); assay: cell-based or functional assay

Chain of CaVB-NFluc (amino terminal portion of luciferase attached to CaVB) (P08659 2-416): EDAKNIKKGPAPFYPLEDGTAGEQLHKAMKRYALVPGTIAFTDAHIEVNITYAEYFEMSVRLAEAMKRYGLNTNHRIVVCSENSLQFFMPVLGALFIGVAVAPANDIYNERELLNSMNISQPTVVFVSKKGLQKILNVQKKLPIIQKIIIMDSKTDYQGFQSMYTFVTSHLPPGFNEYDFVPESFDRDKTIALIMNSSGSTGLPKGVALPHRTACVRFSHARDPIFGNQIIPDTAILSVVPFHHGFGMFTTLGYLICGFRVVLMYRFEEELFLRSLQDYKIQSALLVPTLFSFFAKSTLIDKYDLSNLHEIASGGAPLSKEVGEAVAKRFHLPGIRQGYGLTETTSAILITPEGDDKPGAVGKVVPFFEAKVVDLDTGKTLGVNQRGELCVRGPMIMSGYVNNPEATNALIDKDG
Chain of NFluc-NSH3 (amino terminal portion of luciferase attached to NSH3) (P08659 1-416): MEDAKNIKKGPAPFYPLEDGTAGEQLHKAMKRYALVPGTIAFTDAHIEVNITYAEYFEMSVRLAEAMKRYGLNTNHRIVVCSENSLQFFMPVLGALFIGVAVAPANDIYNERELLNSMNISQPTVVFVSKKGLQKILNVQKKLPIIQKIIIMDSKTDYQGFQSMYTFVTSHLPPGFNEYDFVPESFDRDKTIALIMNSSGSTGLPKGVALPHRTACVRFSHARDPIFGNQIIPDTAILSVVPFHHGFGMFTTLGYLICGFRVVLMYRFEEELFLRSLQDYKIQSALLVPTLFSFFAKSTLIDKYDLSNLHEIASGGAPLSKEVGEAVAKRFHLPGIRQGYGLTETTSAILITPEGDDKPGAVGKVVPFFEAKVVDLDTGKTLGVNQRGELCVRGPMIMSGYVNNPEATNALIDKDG
Chain of GKC-CFluc (carboxyl terminal portion of luciferase attached to GKC) [luciferase: P08659] (P08659 398-550): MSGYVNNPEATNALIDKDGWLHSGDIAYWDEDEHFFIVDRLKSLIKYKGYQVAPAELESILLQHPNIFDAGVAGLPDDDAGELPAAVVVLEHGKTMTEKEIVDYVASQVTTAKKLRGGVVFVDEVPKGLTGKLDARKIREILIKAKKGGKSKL
Chain of I-IIC-CFluc (carboxyl terminal portion of luciferase attached to I-IIC domain of CaV1.2) [luciferase: P08659] (P08659 398-550): as above

Substance: CaVB-NFluc (amino terminal portion of luciferase attached to CaVB) (from UniProt P08659 2-416)
bioluminescence signal, fold over negative control [1]: 15 fold

Substance: N-terminal 3×FLAG-tagged dihydropyridine (DHP)-resistant (T1066Y/Q1070M) AID-mutant rabbit α1C (from UniProt P15381 1-2171)
increase in cardiac contractility by 200 nM isoproterenol (Langendorff hearts, nisoldipine present) [2]: 1.2 fold
increase in contractility in response to isoproterenol (isolated hearts, nisoldipine present) [2]: 0 to 25%
increase in fractional shortening by isoproterenol (cardiomyocytes, nisoldipine present) [2]: 25%

Second part, the substance after the results:

bioluminescence, fold over negative control cells [3]: 70 fold
Substance: NFluc-NSH3 (amino terminal portion of luciferase attached to NSH3) (from UniProt P08659 1-416)

increase in whole-cell current amplitude by 1 µM forskolin [4]: 4 to 5 fold
Substance: YFP-tagged mutant (YWI/AAA) AID peptide

increase in cardiac contractility by 200 nM isoproterenol (Langendorff hearts, nisoldipine present) [2]: 3.3 fold
increase in fractional shortening by isoproterenol (cardiomyocytes, nisoldipine present) [2]: 100%
increase of Ca2+ current by forskolin [2]: 1.8 fold
increase of nisoldipine-insensitive current by 200 nM isoproterenol [2]: 1.9 fold
shift of Vmid in the hyperpolarizing direction by 200 nM isoproterenol [2]: 4.4 mV
Substance: pseudo-wild-type (pWT) α1C: transgenic FLAG-tagged DHP-resistant α1C subunit with wild-type AID (from UniProt P15381 1-2171)
